In patent US12366576B2, “Compositions, assays, and methods for direct modulation of fatty acid metabolism” (Dana-Farber Cancer Institute, Inc., priority 2016, dated 2025):
Bridge positions count the residues as written; N and C are the ends. Square brackets hold non-standard residues; d marks the D form. Ends that are not written are not given here. S5 = C=CCCC[C@](C)(N)C(=O)O

Molecular target: T1, MCAD (Mus musculus, UniProt P45952)
T1 construct: endogenous in cells; host or cells: wild-type mouse embryonic fibroblasts (lysate)
T1 sequence (P45952 26-421): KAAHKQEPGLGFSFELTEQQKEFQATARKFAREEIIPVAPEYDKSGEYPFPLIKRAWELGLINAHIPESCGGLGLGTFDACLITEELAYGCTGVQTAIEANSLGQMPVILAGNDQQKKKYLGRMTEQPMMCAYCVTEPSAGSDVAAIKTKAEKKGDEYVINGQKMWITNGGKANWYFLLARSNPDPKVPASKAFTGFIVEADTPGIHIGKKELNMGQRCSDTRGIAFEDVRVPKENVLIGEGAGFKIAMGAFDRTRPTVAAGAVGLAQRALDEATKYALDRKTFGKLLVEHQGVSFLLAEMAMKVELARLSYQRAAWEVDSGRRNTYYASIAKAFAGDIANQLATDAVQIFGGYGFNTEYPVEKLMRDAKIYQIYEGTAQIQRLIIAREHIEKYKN
Test: Biotinylated SAHB pulldown from MEF lysates, MCAD Western analysis
Format: binding
Conditions: wild-type MEF lysates
Excerpt: To validate the MS result, the pulldowns were repeated and eluates run on a gel for anti-VLCAD Western blot analysis. […] All peptides faithfully recapitulated native BH3-binding propensities for endogenous MCL-1 protein (FIG. 8). The eluates were then probed for the other members of the acyl-CoA dehydrogenase family that manifest shorter fatty acid substrate specificities. MCL-1 SAHBD was able to pull down VLCAD, but not MCAD or SCAD (FIG. 9). Because the traditional MCL-1 staple location differs from that of the BIM, BID, and BAD SAHBs, it was important to confirm that the observed VLCAD binding specificity was due to BH3 sequence selectivity, not staple position. A BIM SAHB with the traditional MCL-1 staple (BIM SAHBF), and a MCL-1 stapled peptide with the traditional BIM staple (MCL-1 SAHBA), were generated. […]
Wild-type MEFs were trypsinized, washed once with cold PBS, and lysed on ice with NP-40 lysis buffer (50 mM Tris, pH 7.4, 150 mM NaCl, 0.5% (v/v) NP-40, complete protease inhibitor pellet (Roche)) using 1 ml of lysis buffer for every 10 million cells lysed. Cellular debris was pelleted at 14,000 g for 10 min at 4° C., and the supernatant was quantified using the BCA Protein Assay Kit (Thermo Fisher Scientific). […]

Substance: MCL-1 SAHBD: hydrocarbon-stapled peptide mimicking the MCL-1 BH3 domain (Stabilized Alpha-Helix of BCL-2 Domain), SEQ ID NO:19 (RKALETLRRVGDGV[S5]RNH[S5]TAF; staple 15-19)
- pull down of MCAD from cellular lysates: not
